The target in the assay is T1, purified C3b (UniProt P01024 23-667; P01024 749-1663).
T1 construct: complement C3 beta chain, as in C3b; complement C3b alpha' chain (C3 alpha chain without C3a); also called C3b fragment; source: bought: Merck
In words: SPR; ProteOn XPR36; recombinant FHR-5 variants amine-coupled on a GLC chip at 4,200-4,600 RU; C3b in serial dilutions as analyte in DPBS with 0.005% Tween-20, 50 µl/min; ovalbumin channel subtracted; bivalent analyte model, KD = kd/ka. The settings on record: both partners purified. (In SPR one partner is held on a chip, and binding of the other changes the refractive index at the surface.)

Numbering of substitutions follows the chain as printed. Numbers in names are those of the source.

T1 sequence (P01024 23-667, chain 1 of 2): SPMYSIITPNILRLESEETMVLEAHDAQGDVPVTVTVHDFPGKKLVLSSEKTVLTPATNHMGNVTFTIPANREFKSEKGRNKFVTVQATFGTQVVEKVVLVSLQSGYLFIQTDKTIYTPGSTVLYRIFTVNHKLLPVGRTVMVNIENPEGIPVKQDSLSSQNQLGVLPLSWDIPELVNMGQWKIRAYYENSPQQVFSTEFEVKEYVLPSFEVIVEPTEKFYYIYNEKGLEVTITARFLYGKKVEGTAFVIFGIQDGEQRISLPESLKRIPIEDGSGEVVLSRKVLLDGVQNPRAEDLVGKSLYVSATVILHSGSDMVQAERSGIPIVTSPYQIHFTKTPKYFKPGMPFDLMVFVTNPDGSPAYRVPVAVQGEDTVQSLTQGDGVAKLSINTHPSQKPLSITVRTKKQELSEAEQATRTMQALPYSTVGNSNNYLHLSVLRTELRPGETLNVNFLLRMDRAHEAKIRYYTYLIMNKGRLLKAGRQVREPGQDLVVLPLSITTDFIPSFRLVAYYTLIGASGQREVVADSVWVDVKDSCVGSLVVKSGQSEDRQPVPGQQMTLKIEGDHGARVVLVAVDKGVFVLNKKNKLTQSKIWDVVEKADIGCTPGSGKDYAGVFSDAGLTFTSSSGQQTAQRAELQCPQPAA
T1 sequence (P01024 749-1663, chain 2 of 2): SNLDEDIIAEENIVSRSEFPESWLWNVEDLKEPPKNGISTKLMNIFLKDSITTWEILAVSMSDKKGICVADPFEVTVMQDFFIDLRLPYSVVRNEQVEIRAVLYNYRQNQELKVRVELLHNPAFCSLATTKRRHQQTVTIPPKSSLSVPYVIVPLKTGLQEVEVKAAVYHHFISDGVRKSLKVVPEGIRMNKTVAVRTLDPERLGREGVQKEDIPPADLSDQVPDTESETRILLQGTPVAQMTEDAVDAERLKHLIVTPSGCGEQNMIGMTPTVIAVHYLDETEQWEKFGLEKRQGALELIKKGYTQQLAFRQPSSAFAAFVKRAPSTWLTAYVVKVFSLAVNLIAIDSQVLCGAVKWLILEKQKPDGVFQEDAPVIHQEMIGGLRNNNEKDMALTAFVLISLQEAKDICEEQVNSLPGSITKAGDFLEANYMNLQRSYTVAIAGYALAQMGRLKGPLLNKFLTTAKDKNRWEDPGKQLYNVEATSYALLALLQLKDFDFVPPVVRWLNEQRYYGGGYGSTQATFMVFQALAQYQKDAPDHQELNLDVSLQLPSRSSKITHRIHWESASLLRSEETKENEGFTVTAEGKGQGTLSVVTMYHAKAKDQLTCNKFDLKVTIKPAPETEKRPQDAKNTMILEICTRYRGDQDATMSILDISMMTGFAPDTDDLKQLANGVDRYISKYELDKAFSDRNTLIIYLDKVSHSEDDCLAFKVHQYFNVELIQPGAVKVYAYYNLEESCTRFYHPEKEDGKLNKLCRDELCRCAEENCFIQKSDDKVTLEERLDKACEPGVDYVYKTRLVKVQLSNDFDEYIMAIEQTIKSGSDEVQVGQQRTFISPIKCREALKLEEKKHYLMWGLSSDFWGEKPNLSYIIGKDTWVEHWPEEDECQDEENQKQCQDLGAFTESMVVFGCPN

B1: recombinant FHR-5 G278S (natural protein, human, UniProt Q9BXR6 19-569, looked up)
chain: EGTLCDFPKIHHGFLYDEEDYNPFSQVPTGEVFYYSCEYNFVSPSKSFWTRITCTEEGWSPTPKCLRMCSFPFVKNGHSESSGLIHLEGDTVQIICNTGYSLQNNEKNISCVERGWSTPPICSFTKGECHVPILEANVDAQPKKESYKVGDVLKFSCRKNLIRVGSDSVQCYQFGWSPNFPTCKGQVRSCGPPPQLSNGEVKEIRKEEYGHNEVVEYDCNPNFIINGPKKIQCVDGEWTTLPTCVEQVKTCGYIPELEYSYVQPSVPPYQHGVSVEVNCRNEYAMIGNNMITCINGIWTELPMCVATHQLKRCKIAGVNIKTLLKLSGKEFNHNSRIRYRCSDIFRYRHSVCINGKWNPEVDCTEKREQFCPPPPQIPNAQNMTTTVNYQDGEKVAVLCKENYLLPEAKEIVCKDGRWQSLPRCVESTAYCGPPPSINNGDTTSFPLSVYPPGSTVTYRCQSFYKLQGSVTVTCRNKQWSEPPRCLDPCVVSEENMNKNNIQLKWRNDGKLYAKTGDAVEFQCKFPHKAMISSPPFRAICQEGKFEYPICE
notes: complement Factor H-related protein 5 (FHR-5), human; amplified from the wtCFHR5 vector with a mutagenic primer; numbered from the ATG translation initiation site; Same construct as m1 with the patient variation G278S
Consider B1, for which the Kd came to 20.5 µM.

B2: recombinant FHR-5 R356H (natural protein, human, UniProt Q9BXR6 19-569, looked up)
chain: B1 chain with S260G, R338H
notes: complement Factor H-related protein 5 (FHR-5), human; amplified from the wtCFHR5 vector with a mutagenic primer; histidine instead of arginine at position 356, a variation found in patients; numbered from the ATG translation initiation site; Same construct as m1 with the patient variation R356H
On to B2, for which the Kd is 5.6 µM.

B3: recombinant wild-type Factor H-related protein 5 (FHR-5WT) (natural protein, human, UniProt Q9BXR6 19-569, looked up)
chain: B1 chain with S260G
notes: complement Factor H-related protein 5 (FHR-5), human; variations are numbered from the ATG translation initiation site; Secreted into the Sf9 supernatant; also called wild-type FHR-5; wtCFHR5
For B3, the Kd is 5.26 µM.

The values above are taken from article PMC8461307, “FHR-5 Serum Levels and CFHR5 Genetic Variations in Patients With Immune Complex-Mediated Membranoproliferative Glomerulonephritis and C3-Glomerulopathy” (Frontiers in Immunology, 2021).
